Experimental findings from IntAct's records for PubMed 24530283 are described below.

For the test, the target named is fos_mouse Fos (UniProt P01101).
Chain of fos_mouse Fos (P01101 whole entry): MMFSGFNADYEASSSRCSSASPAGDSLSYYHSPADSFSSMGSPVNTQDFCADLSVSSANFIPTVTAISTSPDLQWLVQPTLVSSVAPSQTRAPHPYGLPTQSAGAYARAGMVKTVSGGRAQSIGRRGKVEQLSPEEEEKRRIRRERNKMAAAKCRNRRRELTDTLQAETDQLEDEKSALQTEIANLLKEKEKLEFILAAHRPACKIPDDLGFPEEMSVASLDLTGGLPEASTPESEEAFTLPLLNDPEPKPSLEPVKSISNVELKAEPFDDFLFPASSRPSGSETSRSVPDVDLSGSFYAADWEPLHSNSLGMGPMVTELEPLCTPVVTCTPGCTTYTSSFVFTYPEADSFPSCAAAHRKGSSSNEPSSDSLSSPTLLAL

Chain of Transcription factor MafB (Mus musculus), P54841 V277N (P54841 whole entry V277N): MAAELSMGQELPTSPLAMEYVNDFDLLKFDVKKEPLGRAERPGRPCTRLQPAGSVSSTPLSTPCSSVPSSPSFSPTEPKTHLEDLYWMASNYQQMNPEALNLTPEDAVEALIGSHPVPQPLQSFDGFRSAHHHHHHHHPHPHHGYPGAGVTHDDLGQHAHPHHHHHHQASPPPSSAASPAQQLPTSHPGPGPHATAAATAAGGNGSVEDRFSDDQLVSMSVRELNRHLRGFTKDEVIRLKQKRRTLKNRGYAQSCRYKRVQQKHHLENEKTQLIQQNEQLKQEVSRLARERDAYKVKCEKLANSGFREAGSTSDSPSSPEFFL
Chain of Transcription factor MafB (Mus musculus), P54841 E269R (P54841 whole entry E269R): as the sequence (P54841 whole entry V277N) above, with E269R, N277V counted along it

On to “Transcription factor MafB (Mus musculus), P54841 V277N”, for which the “effect of a mutation on the interaction” value is recorded as “disrupting interaction strength”.

Turning to “Transcription factor MafB (Mus musculus), P54841 E269R”, the “effect of a mutation on the interaction” value is “increasing interaction strength”.
